Measured values taken from PMC6202311, “Substrate Recognition and Autoinhibition in the Central Ribonuclease RNase E” (Molecular Cell, 2018).

Tests used:
[1] = target: the molecule itself; assay: crystal structure; RNase E (1-529) D303R, D346R co-crystallised with 5' monophosphorylated MicC-ompD fusion RNA (1:1 molar ratio); 3.0 Å, space group C2; open-state quaternary structure
[2] = target: the molecule itself; assay: crystal structure; RNase E (1-510) D303R, D346R co-crystallised with full-length sRNA RprA; 3.95 Å, space group P6(1); 0.1 M KCl, 0.01 M MgCl2, 0.05 M Tris-HCl pH 8.5, 30% PEG 400, 20°C; tetramer as a dimer of dimers

| Protein | binding result [1] | stoichiometry N [2] |
| --- | --- | --- |
| RNase E (1–529) D303R, D346R (domain or fragment, Crystallised with a 5' monophosphorylated MicC-ompD fusion RNA; Prepared as in Callaghan et al., 2005; cloned in pET16; source: E. coli BL21(DE3), purified (nickel HiTrap Chelating, optional heparin or butyl Sepharose, gel filtration)) not shown | binds | – |
| RNase E (1–510) D303R, D346R (domain or fragment, Crystallised with full-length sRNA RprA; also called RNase E (1–511); source: E. coli BL21(DE3), purified (nickel HiTrap Chelating, optional heparin or butyl Sepharose, gel filtration)) not shown | – | 4 |
